Test results reported in the supplement of paper PMC9112550, “Optimization of the antimicrobial peptide Bac7 by deep mutational scanning” (BMC Biology, 2022).

Tested on: Escherichia coli TOP10
Assay: shrunken log2 fold change of peptide-encoding DNA abundance (4.5 h post-induction vs induction); higher = less antimicrobial activity (less host growth inhibition)
Conditions: time post-induction: 4.5 h; library: site-saturation at positions 5, 18, 19, 20
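Note: peptides expressed intracellularly from a pBAD plasmid library in pooled LB shake-flask culture, induced with 0.3% L-arabinose, DNA abundance read by NGS, three biological replicates, DESeq2 with apeglm shrinkage.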

| Sequence | shrunken log2 fold change |
| --- | --- |
| RRIRTRPPRLPRPRPRPQPRPRP | 0.439 |
| RRIRWRPPRLPRPRPRPFAVPRP | 0.157 |
| RRIRSRPPRLPRPRPRPWADPRP | -0.307 |
| RRIRIRPPRLPRPRPRPNPIPRP | -0.155 |
| RRIRKRPPRLPRPRPRPSDPPRP | 0.0131 |
| RRIRNRPPRLPRPRPRPIYRPRP | -0.356 |
| RRIRPRPPRLPRPRPRPSADPRP | -0.0256 |
| RRIRWRPPRLPRPRPRPAMFPRP | 0.324 |
| RRIRNRPPRLPRPRPRPSWTPRP | -0.211 |
| RRIRDRPPRLPRPRPRPSNPPRP | -0.281 |
| RRIRTRPPRLPRPRPRPDGPPRP | 0.126 |
| RRIRYRPPRLPRPRPRPHNKPRP | -0.718 |
| RRIRTRPPRLPRPRPRPMNPPRP | -0.141 |
| RRIRRRPPRLPRPRPRPALNPRP | 0.248 |
| RRIRGRPPRLPRPRPRPSLEPRP | 0.827 |
| RRIRIRPPRLPRPRPRPNHSPRP | -0.639 |
| RRIRMRPPRLPRPRPRPARSPRP | 1.05 |
| RRIRGRPPRLPRPRPRPHTNPRP | 0.221 |
| RRIRNRPPRLPRPRPRPDPQPRP | 0.0854 |
| RRIRHRPPRLPRPRPRPWGSPRP | -0.356 |
| RRIRVRPPRLPRPRPRPDFKPRP | 0.0385 |
| RRIRLRPPRLPRPRPRPCAEPRP | 0.395 |
| RRIRARPPRLPRPRPRPTFAPRP | 0.347 |
| RRIRQRPPRLPRPRPRPGDPPRP | 0.0572 |
| RRIRGRPPRLPRPRPRPWDMPRP | -0.08 |

| Sequence | shrunken log2 fold change |
| --- | --- |
| RRIRYRPPRLPRPRPRPTWPPRP | 0.183 |
| RRIRARPPRLPRPRPRPMFFPRP | 0.0123 |
| RRIRPRPPRLPRPRPRPTCMPRP | 0.219 |
| RRIRLRPPRLPRPRPRPDCIPRP | 0.185 |
| RRIRNRPPRLPRPRPRPDETPRP | -0.00208 |
| RRIRWRPPRLPRPRPRPYRMPRP | 0.0292 |
| RRIRYRPPRLPRPRPRPKHRPRP | 0.0727 |
| RRIRVRPPRLPRPRPRPFFWPRP | 0.395 |
| RRIRFRPPRLPRPRPRPPADPRP | 0.789 |
| RRIRNRPPRLPRPRPRPNAYPRP | -0.0738 |
| RRIRSRPPRLPRPRPRPRADPRP | 0.387 |
| RRIRCRPPRLPRPRPRPIHAPRP | -0.0479 |
| RRIRKRPPRLPRPRPRPRPEPRP | 0.162 |
| RRIRMRPPRLPRPRPRPDISPRP | -0.0568 |
| RRIRCRPPRLPRPRPRPYAHPRP | -0.189 |
| RRIRNRPPRLPRPRPRPHNPPRP | -0.143 |
| RRIRVRPPRLPRPRPRPLMTPRP | -0.24 |
| RRIRRRPPRLPRPRPRPVGPPRP | -0.0193 |
| RRIRYRPPRLPRPRPRPWIGPRP | -0.314 |
| RRIRCRPPRLPRPRPRPWSQPRP | -0.0595 |
| RRIRCRPPRLPRPRPRPVLPPRP | 2 |
| RRIRPRPPRLPRPRPRPADSPRP | -0.0563 |
| RRIRWRPPRLPRPRPRPTIAPRP | 0.367 |
| RRIRPRPPRLPRPRPRPFNPPRP | -0.296 |
| RRIRSRPPRLPRPRPRPDYEPRP | -0.221 |

| Sequence | shrunken log2 fold change |
| --- | --- |
| RRIRLRPPRLPRPRPRPFYLPRP | -0.572 |
| RRIRIRPPRLPRPRPRPLLAPRP | 0.185 |
| RRIRARPPRLPRPRPRPIILPRP | -0.262 |
| RRIRQRPPRLPRPRPRPWYAPRP | -0.134 |
| RRIRSRPPRLPRPRPRPIDSPRP | -0.0241 |
| RRIRDRPPRLPRPRPRPCLPPRP | -0.272 |
| RRIRCRPPRLPRPRPRPNHHPRP | -0.604 |
| RRIRPRPPRLPRPRPRPHYPPRP | -0.0221 |
| RRIRCRPPRLPRPRPRPMNCPRP | -0.0537 |
| RRIRQRPPRLPRPRPRPTGLPRP | 0.0999 |
| RRIRMRPPRLPRPRPRPRHMPRP | 0.418 |
| RRIRPRPPRLPRPRPRPGTQPRP | 0.185 |
| RRIRARPPRLPRPRPRPHKGPRP | 0.187 |
| RRIRRRPPRLPRPRPRPGANPRP | 0.208 |
| RRIRLRPPRLPRPRPRPSGLPRP | -0.429 |
| RRIRDRPPRLPRPRPRPMGSPRP | 0.00408 |
| RRIRRRPPRLPRPRPRPSLNPRP | 0.00555 |
| RRIRFRPPRLPRPRPRPWKTPRP | -0.0119 |
| RRIRVRPPRLPRPRPRPGNWPRP | 0.0971 |
| RRIRCRPPRLPRPRPRPMHLPRP | 0.0527 |
| RRIRARPPRLPRPRPRPNSLPRP | -0.207 |
| RRIRCRPPRLPRPRPRPHTQPRP | -0.55 |
| RRIRWRPPRLPRPRPRPWPYPRP | -0.0146 |
| RRIRDRPPRLPRPRPRPEYKPRP | 0.27 |
| RRIRKRPPRLPRPRPRPGPYPRP | 0.104 |

| Sequence | shrunken log2 fold change |
| --- | --- |
| RRIRNRPPRLPRPRPRPERNPRP | -0.0623 |
| RRIRFRPPRLPRPRPRPHNDPRP | -0.81 |
| RRIRNRPPRLPRPRPRPTCYPRP | -0.226 |
| RRIRRRPPRLPRPRPRPCVAPRP | 0.261 |
| RRIRNRPPRLPRPRPRPHRHPRP | -0.222 |
| RRIRERPPRLPRPRPRPDHRPRP | -0.00204 |
| RRIRTRPPRLPRPRPRPVMFPRP | 0.32 |
| RRIRQRPPRLPRPRPRPPYFPRP | 0.245 |
| RRIRARPPRLPRPRPRPLGGPRP | 1.01 |
| RRIRERPPRLPRPRPRPNHYPRP | -1.57 |
| RRIRFRPPRLPRPRPRPVDLPRP | -0.102 |
| RRIRSRPPRLPRPRPRPSLHPRP | -0.385 |
| RRIRNRPPRLPRPRPRPMASPRP | -0.0269 |
| RRIRLRPPRLPRPRPRPPDPPRP | 0.584 |
| RRIRDRPPRLPRPRPRPVHWPRP | 0.31 |
| RRIRCRPPRLPRPRPRPLNQPRP | -0.317 |
| RRIRQRPPRLPRPRPRPSRSPRP | -0.117 |
| RRIRGRPPRLPRPRPRPHWCPRP | 0.00693 |
| RRIRLRPPRLPRPRPRPHIPPRP | -0.664 |
| RRIRLRPPRLPRPRPRPNHNPRP | -0.726 |
| RRIRLRPPRLPRPRPRPKFYPRP | -0.369 |
| RRIRCRPPRLPRPRPRPNMDPRP | -0.431 |
| RRIRERPPRLPRPRPRPEPNPRP | 0.366 |
| RRIRTRPPRLPRPRPRPHIQPRP | -0.0986 |
| RRIRERPPRLPRPRPRPRQQPRP | 0.357 |

| Sequence | shrunken log2 fold change |
| --- | --- |
| RRIRNRPPRLPRPRPRPTVTPRP | 0.354 |
| RRIRGRPPRLPRPRPRPFCCPRP | 0.522 |
| RRIRWRPPRLPRPRPRPDGFPRP | -0.0231 |
| RRIRDRPPRLPRPRPRPNNFPRP | -0.418 |
| RRIRHRPPRLPRPRPRPPQKPRP | 0.0508 |
| RRIRSRPPRLPRPRPRPIMIPRP | -0.426 |
| RRIRYRPPRLPRPRPRPVHNPRP | -0.353 |
| RRIRSRPPRLPRPRPRPNAMPRP | -0.0346 |
| RRIRKRPPRLPRPRPRPSLWPRP | 0.187 |
| RRIRKRPPRLPRPRPRPDAWPRP | -0.0106 |
| RRIRERPPRLPRPRPRPISFPRP | -0.441 |
| RRIRFRPPRLPRPRPRPGWGPRP | 0.076 |
| RRIRDRPPRLPRPRPRPLVWPRP | 0.831 |
| RRIRYRPPRLPRPRPRPFPQPRP | -0.137 |
| RRIRHRPPRLPRPRPRPHVWPRP | 0.205 |
| RRIRTRPPRLPRPRPRPALPPRP | 0.204 |
| RRIRGRPPRLPRPRPRPQLWPRP | 0.928 |
| RRIRRRPPRLPRPRPRPPDSPRP | 0.289 |
| RRIRHRPPRLPRPRPRPKGKPRP | -0.0894 |
| RRIRPRPPRLPRPRPRPSRDPRP | -0.109 |
| RRIRWRPPRLPRPRPRPGQHPRP | -0.172 |
| RRIRARPPRLPRPRPRPKMRPRP | 1.64 |
| RRIRNRPPRLPRPRPRPFMCPRP | -0.202 |
| RRIRMRPPRLPRPRPRPWLEPRP | -0.00871 |
| RRIRIRPPRLPRPRPRPGHAPRP | -0.0343 |
